Assay results reported in patent US20250122291A1 (CEPHALON, published 2025).
Where a chain is given by its changes, count along the chain named. Each block holds one molecule with its values, some of them ahead of it.

Columns and labels:
[1] = target: native rat TrkA on PC12 cells (rat, UniProt P35739 33-799); assay: cell-based or functional assay
[2] = target: T1, native human TrkA expressed endogenously on SH-SY5Y cells (human, UniProt P04629 33-796); assay: flow cytometry on SH-SY5Y cells, anti-human IgG Fc secondary, MFI, average of three experiments
T1 construct: whole, on cells
T1 sequence (P04629 33-796): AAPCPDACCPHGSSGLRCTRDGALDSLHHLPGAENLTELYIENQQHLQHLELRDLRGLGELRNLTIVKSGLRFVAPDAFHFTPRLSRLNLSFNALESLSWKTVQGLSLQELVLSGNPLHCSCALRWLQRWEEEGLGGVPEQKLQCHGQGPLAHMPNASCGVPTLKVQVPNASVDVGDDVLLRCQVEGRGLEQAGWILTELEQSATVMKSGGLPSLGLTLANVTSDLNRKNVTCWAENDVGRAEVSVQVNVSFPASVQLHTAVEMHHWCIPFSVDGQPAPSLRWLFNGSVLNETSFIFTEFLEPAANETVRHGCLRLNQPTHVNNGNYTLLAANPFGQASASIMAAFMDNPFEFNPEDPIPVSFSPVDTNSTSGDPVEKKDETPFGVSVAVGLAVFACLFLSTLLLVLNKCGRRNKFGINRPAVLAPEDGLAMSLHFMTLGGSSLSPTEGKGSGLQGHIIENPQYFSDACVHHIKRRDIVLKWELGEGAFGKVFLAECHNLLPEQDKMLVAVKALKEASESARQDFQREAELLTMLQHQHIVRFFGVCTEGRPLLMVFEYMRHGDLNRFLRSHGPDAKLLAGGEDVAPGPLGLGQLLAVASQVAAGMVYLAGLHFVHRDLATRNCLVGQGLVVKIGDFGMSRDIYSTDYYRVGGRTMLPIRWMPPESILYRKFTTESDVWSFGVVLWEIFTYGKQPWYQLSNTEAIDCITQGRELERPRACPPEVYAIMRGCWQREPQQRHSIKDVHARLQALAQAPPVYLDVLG

hTrkC-ECD-His = target: T2, hTrkC-ECD-His (human, UniProt Q16288 32-429); assay: SPR, target amine-coupled on CM5 chip, 25 C, pH 7.4
T2 construct: extracellular domain; Immobilised on a CM5 chip by amine coupling; also called human TrkC

hp75NTR-His = target: T3, hp75NTR-His (human, UniProt P08138 29-250); assay: as above
T3 construct: extracellular domain; Immobilised on a CM5 chip by amine coupling; also called human p75NTR
T3 sequence (looked up): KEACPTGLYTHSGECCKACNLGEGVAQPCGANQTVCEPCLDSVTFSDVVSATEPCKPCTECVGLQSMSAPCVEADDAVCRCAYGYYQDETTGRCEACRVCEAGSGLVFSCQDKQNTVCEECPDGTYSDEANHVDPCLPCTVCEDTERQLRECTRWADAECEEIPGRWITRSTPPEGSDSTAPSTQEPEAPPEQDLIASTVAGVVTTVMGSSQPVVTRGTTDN

[3] = target: T4, hTrkB-Extracellular Domain-poly C-terminal Histidine tagged (human, UniProt Q16620 32-430); assay: as above
T4 construct: extracellular domain; Immobilised on a CM5 chip by amine coupling; also called hTrkB-ECD-His; human TrkB
T4 sequence (Q16620 32-430): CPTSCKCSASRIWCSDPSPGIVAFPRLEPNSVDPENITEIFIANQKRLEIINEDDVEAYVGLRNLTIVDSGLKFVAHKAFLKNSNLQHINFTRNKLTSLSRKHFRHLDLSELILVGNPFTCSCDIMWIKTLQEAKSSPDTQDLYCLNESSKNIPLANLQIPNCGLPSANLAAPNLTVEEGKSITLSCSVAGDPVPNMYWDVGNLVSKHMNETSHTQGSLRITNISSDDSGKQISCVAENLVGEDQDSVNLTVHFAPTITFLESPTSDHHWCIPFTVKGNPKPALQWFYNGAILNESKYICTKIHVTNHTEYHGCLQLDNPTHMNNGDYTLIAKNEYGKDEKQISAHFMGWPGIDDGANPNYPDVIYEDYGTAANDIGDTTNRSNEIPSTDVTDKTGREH

recombinant human TrkA = target: T5, recombinant human TrkA (human, UniProt P04629 33-423, limits assumed); assay: SPR, antibody captured on protein A chip, TrkA as analyte, single concentration, 1:1 model
T5 construct: also called hTrkA
T5 sequence (P04629 33-423 limits assumed): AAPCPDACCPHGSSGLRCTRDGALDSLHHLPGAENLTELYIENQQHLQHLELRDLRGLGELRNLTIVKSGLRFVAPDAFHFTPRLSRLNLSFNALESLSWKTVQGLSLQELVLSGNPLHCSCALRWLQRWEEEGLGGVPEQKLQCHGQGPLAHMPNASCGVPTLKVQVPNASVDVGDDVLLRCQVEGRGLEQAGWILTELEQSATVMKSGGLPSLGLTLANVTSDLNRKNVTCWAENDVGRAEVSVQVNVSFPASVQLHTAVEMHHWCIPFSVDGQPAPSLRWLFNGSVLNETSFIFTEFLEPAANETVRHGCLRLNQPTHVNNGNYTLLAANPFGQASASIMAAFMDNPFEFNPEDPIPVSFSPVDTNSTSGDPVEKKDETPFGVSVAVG

native rat TrkA on PC12 cells, sequence (P35739 33-799): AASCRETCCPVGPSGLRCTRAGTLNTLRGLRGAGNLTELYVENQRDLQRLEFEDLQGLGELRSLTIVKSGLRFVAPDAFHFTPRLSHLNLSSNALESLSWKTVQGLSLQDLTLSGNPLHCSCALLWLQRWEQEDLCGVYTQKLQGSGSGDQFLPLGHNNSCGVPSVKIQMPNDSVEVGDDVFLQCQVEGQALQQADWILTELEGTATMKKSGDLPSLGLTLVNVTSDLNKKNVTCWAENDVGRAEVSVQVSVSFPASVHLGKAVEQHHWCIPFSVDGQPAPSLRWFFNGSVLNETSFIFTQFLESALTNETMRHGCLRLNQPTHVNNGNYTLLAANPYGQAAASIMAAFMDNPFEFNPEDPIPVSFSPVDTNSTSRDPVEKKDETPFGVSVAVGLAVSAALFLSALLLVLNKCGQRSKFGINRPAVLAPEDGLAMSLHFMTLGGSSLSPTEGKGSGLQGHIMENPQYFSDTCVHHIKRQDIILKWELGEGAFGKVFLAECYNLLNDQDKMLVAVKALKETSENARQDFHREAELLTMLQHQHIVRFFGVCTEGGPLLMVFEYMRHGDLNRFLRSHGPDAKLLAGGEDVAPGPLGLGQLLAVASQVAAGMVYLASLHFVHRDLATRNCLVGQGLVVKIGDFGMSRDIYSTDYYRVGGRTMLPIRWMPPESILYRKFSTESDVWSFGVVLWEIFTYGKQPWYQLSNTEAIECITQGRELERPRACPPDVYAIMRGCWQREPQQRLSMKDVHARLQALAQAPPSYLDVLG

- EC50 [2]: 275 nM
- binding result (hTrkC-ECD-His): no binding (tested: 1 nM)
- binding result (hp75NTR-His): no binding (tested: 1 nM)
- binding result [3]: no binding (tested: 1 nM)
- Akt phosphorylation in PC12 cells, EC50 [1]: 0.501 nM
- Erk phosphorylation in PC12 cells, EC50 [1]: 0.54 nM
- TrkA receptor phosphorylation in PC12 cells (AlphaLISA p-TrkA Tyr674/675), EC50 [1]: 0.341 nM
- neurite outgrowth in PC12 cells at 138 hours, EC50 [1]: 0.0858 nM
B1: anti-TrkA antibody Ab82, full length (antibody, V domains shown)
VH: QVQLQESGPGLVKPSGTLSLTCAVSGGSISSSNWWTWVRQPPGKGLEWIGEIYHRGNRNYNPSLKSRVTISVDKSKNQFSLKLSSVTAADTAVYYCARAPWFDYWGQGTLVTVSS
VL: SSELTQDPAVSVALGQTVRITCQGDALRSYYASWYQQKPGQAPVLVIYGKGNRPSGIPDRFSGSSSGNTASLTITGAQAEDEADYYCASQASSGNHLIFGGGTKLTVLG
notes: also called full length Ab82; full-length antibody

- Kd (recombinant human TrkA): 0.815 nM
- koff (recombinant human TrkA): 0.000216 s⁻¹
- kon (recombinant human TrkA): 265000 M⁻¹ s⁻¹
B4: anti-TrkA antibody Ab676 (antibody, V domains shown)
VH: QVQLQESGPGLVKPSGTLSLTCAVSGGSVSSGNWWTWVRQPPGKGLEWIGEIYHRGNTNYNPSLKSRVTISVDKSKNQFSLKLNSVTAADTAVYFCARAPFFDYWGQGTLV
VL: B1 VL with A26S, Y48H, G51N, A88N, A91V, S92Y, S93G

- Akt pathway activation (pEC50) [1]: 8.67 pEC50
- Erk pathway activation (pEC50) [1]: 8.86 pEC50
- Neurite outgrowth (pEC50) [1]: 9.79 pEC50
- Kd (recombinant human TrkA): 2.1 nM
- koff (recombinant human TrkA): 0.000614 s⁻¹
- kon (recombinant human TrkA): 293000 M⁻¹ s⁻¹
B5: anti-TrkA antibody Ab3 (antibody, V domains shown)
VH: B4 VH
VL: B1 VL with A26S, Y48F, G51N, A88N, A91V, S93G

- Kd (recombinant human TrkA): 1.25 nM
- koff (recombinant human TrkA): 0.0003 s⁻¹
- kon (recombinant human TrkA): 240000 M⁻¹ s⁻¹
B6: anti-TrkA antibody Ab476 (antibody, V domains shown)
VH: B4 VH with V29I, G32S, T58R, N84S, F95Y, Y104R
VL: B1 VL with A26S, Y48H, G51N, A88N, A91D

- Akt pathway activation (pEC50) [1]: 9.09 pEC50
- Erk pathway activation (pEC50) [1]: 9.14 pEC50
- Neurite outgrowth (pEC50) [1]: 9.99 pEC50
- Kd (recombinant human TrkA): 1.75 nM
- koff (recombinant human TrkA): 0.000443 s⁻¹
- kon (recombinant human TrkA): 253000 M⁻¹ s⁻¹
B9: anti-TrkA antibody Ab82 (as in Tables 4 and 6) (antibody, V domains shown)
VH: B4 VH with V29I, G32S, T58R, N84S, F95Y, F101W
VL: SSELTQDPAVSVALGQTVRITCQGDALRSYYASWYQQKPGQAPVLVIYGKGNRPSGIPDRFSGSSSGNTASLTITGAQAEDEADYYCASQASSGNHLIFGGGTKLT

- Akt pathway activation (pEC50) [1]: 9.68 pEC50
- Erk pathway activation (pEC50) [1]: 9.89 pEC50
- Neurite outgrowth (pEC50) [1]: 10.1 pEC50
- Kd (recombinant human TrkA): 1.5 nM
- koff (recombinant human TrkA): 0.000299 s⁻¹
B11: anti-TrkA antibody Ab145 (antibody, V domains shown)
VH: B4 VH with Q1E, V29I, G32S, T58R, N84S, F95Y, F101W
VL: B9 VL with D25L, A26S, G51N, N52K

- Akt pathway activation (pEC50) [1]: 9.57 pEC50
- Erk pathway activation (pEC50) [1]: 9.78 pEC50
- Neurite outgrowth (pEC50) [1]: 9.95 pEC50
- Kd (recombinant human TrkA): 0.943 nM
- koff (recombinant human TrkA): 0.000211 s⁻¹
B12: anti-TrkA antibody Ab76 (antibody, V domains shown)
VH: B4 VH with Q1E, V29I, G32S, T58R, N84S, F95Y, F101W
VL: B9 VL with G51N, N52K

- Akt pathway activation (pEC50) [1]: 9.53 pEC50
- Erk pathway activation (pEC50) [1]: 9.54 pEC50
- Neurite outgrowth (pEC50) [1]: 9.97 pEC50
- Kd (recombinant human TrkA): 0.999 nM
- koff (recombinant human TrkA): 0.000254 s⁻¹
B13: anti-TrkA antibody Ab142 (antibody, V domains shown)
VH: B4 VH with Q1E, V29I, G32S, T58R, N84S, F95Y, F101W
VL: B9 VL with D25L, A26S, G51N, N52K, A88N

- Akt pathway activation (pEC50) [1]: 9.5 pEC50
- Erk pathway activation (pEC50) [1]: 9.88 pEC50
- Neurite outgrowth (pEC50) [1]: 9.6 pEC50
- Kd (recombinant human TrkA): 1.45 nM
- koff (recombinant human TrkA): 0.000294 s⁻¹
B15: anti-TrkA antibody Ab122 (antibody, V domains shown)
VH: B4 VH with Q1E, V29I, G32S, T58R, N84S, F95Y, F101W
VL: B9 VL with D25A, A26S, G51N, N52K

- Akt pathway activation (pEC50) [1]: 9.25 pEC50
- Erk pathway activation (pEC50) [1]: 9.11 pEC50
- Neurite outgrowth (pEC50) [1]: 10.1 pEC50
- Kd (recombinant human TrkA): 1.19 nM
- koff (recombinant human TrkA): 0.000314 s⁻¹
- kon (recombinant human TrkA): 264000 M⁻¹ s⁻¹
B16: anti-TrkA antibody Ab147 (antibody, V domains shown)
VH: B4 VH with Q1E, V29I, G32S, T58R, N84S, F95Y, F101W
VL: B9 VL with D25L, A26S, A88N, A91D

- Akt pathway activation (pEC50) [1]: 9.53 pEC50
- Erk pathway activation (pEC50) [1]: 10.2 pEC50
- Neurite outgrowth (pEC50) [1]: 9.81 pEC50
- Kd (recombinant human TrkA): 1.23 nM
- koff (recombinant human TrkA): 0.000277 s⁻¹
B20: anti-TrkA antibody Ab96 (antibody, V domains shown)
VH: B4 VH with Q1E, V29I, G32S, T58R, N84S, F95Y, F101W
VL: B9 VL with D25G, A26S, G51N, N52K, A88N

More lines, now with the values behind:

Molecule: mouse β-NGF (from UniProt P01139 122-241) (ligand)
- Akt phosphorylation in PC12 cells, EC50 [1]: 0.025 nM
- Erk phosphorylation in PC12 cells, EC50 [1]: 0.025 nM
- TrkA receptor phosphorylation in PC12 cells (AlphaLISA p-TrkA Tyr674/675), EC50 [1]: 0.129 nM
- neurite outgrowth in PC12 cells at 138 hours, EC50 [1]: 0.0078 nM

B2: anti-TrkA antibody Ab386 (antibody, V domains shown)
VH: B4 VH with V29I, G32S, T58R, N84S, F95Y, F101W
VL: B1 VL with A26S, G51N, A88N, A91D
- Akt pathway activation (pEC50) [1]: 9 pEC50
- Erk pathway activation (pEC50) [1]: 9.23 pEC50
- Neurite outgrowth (pEC50) [1]: 10.1 pEC50
- Kd (recombinant human TrkA): 1.15 nM
- koff (recombinant human TrkA): 0.000305 s⁻¹
- kon (recombinant human TrkA): 266000 M⁻¹ s⁻¹

B3: anti-TrkA antibody Ab449 (antibody, V domains shown)
VH: B4 VH with V29I, G32S, T58R, N84S, F95Y, F101W, Y104R
VL: B1 VL with A26S, G51N, A88N, A91D
- Kd (recombinant human TrkA): 0.875 nM
- koff (recombinant human TrkA): 0.000244 s⁻¹
- kon (recombinant human TrkA): 279000 M⁻¹ s⁻¹

B7: anti-TrkA antibody Ab523 (antibody, V domains shown)
VH: B4 VH with T58R
VL: B1 VL with A26S, G51N, G67W, A88N, A91D
- Kd (recombinant human TrkA): 1.3 nM
- koff (recombinant human TrkA): 0.000258 s⁻¹
- kon (recombinant human TrkA): 199000 M⁻¹ s⁻¹

B8: anti-TrkA antibody Ab49 (antibody, V domains shown)
VH: B4 VH with Q1E, V29I, G32S, T58R, N84S, F95Y, F101W
VL: B9 VL with A26S, G51N
- Akt pathway activation (pEC50) [1]: 9.12 pEC50
- Erk pathway activation (pEC50) [1]: 9.29 pEC50
- Neurite outgrowth (pEC50) [1]: 10.1 pEC50
- Kd (recombinant human TrkA): 1.78 nM
- koff (recombinant human TrkA): 0.000472 s⁻¹
- kon (recombinant human TrkA): 264000 M⁻¹ s⁻¹

B10: anti-TrkA antibody Ab70 (antibody, V domains shown)
VH: B4 VH with Q1E, V29I, G32S, T58R, N84S, F95Y, F101W
VL: B9 VL with G51N
- Akt pathway activation (pEC50) [1]: 9.05 pEC50
- Erk pathway activation (pEC50) [1]: 9.21 pEC50
- Neurite outgrowth (pEC50) [1]: 10 pEC50
- Kd (recombinant human TrkA): 1.63 nM
- koff (recombinant human TrkA): 0.000432 s⁻¹
- kon (recombinant human TrkA): 265000 M⁻¹ s⁻¹

B14: anti-TrkA antibody Ab124 (antibody, V domains shown)
VH: B4 VH with Q1E, V29I, G32S, T58R, N84S, F95Y, F101W
VL: B9 VL with D25A, A26S, A88N, A91D
- Akt pathway activation (pEC50) [1]: 9.03 pEC50
- Erk pathway activation (pEC50) [1]: 9.23 pEC50
- Neurite outgrowth (pEC50) [1]: 10.1 pEC50
- Kd (recombinant human TrkA): 1.21 nM
- koff (recombinant human TrkA): 0.000327 s⁻¹
- kon (recombinant human TrkA): 271000 M⁻¹ s⁻¹

B17: anti-TrkA antibody Ab67 (antibody, V domains shown)
VH: B4 VH with Q1E, V29I, G32S, T58R, N84S, F95Y, F101W
VL: B9 VL with G51N, A88N
- Akt pathway activation (pEC50) [1]: 9.07 pEC50
- Erk pathway activation (pEC50) [1]: 9.28 pEC50
- Neurite outgrowth (pEC50) [1]: 9.96 pEC50
- Kd (recombinant human TrkA): 1.91 nM
- koff (recombinant human TrkA): 0.000477 s⁻¹
- kon (recombinant human TrkA): 250000 M⁻¹ s⁻¹

B18: anti-TrkA antibody Ab101 (antibody, V domains shown)
VH: B4 VH with Q1E, V29I, G32S, T58R, N84S, F95Y, F101W
VL: B9 VL with D25G, A26S, A88N, A91D
- Akt pathway activation (pEC50) [1]: 9.2 pEC50
- Erk pathway activation (pEC50) [1]: 9.45 pEC50
- Neurite outgrowth (pEC50) [1]: 10 pEC50
- Kd (recombinant human TrkA): 1.29 nM
- koff (recombinant human TrkA): 0.000352 s⁻¹
- kon (recombinant human TrkA): 273000 M⁻¹ s⁻¹

B19: anti-TrkA antibody Ab79 (antibody, V domains shown)
VH: B4 VH with Q1E, V29I, G32S, T58R, N84S, F95Y, F101W
VL: B9 VL with A88N
- Akt pathway activation (pEC50) [1]: 8.97 pEC50
- Erk pathway activation (pEC50) [1]: 9.21 pEC50
- Neurite outgrowth (pEC50) [1]: 10.2 pEC50
- Kd (recombinant human TrkA): 1.67 nM
- koff (recombinant human TrkA): 0.000421 s⁻¹
- kon (recombinant human TrkA): 252000 M⁻¹ s⁻¹

B21: anti-TrkA antibody Ab119 (antibody, V domains shown)
VH: B4 VH with Q1E, V29I, G32S, T58R, N84S, F95Y, F101W
VL: B9 VL with D25A, A26S, G51N, N52K, A88N
- Akt pathway activation (pEC50) [1]: 9.25 pEC50
- Erk pathway activation (pEC50) [1]: 10.2 pEC50
- Neurite outgrowth (pEC50) [1]: 10.2 pEC50
- Kd (recombinant human TrkA): 1.11 nM
- koff (recombinant human TrkA): 0.000265 s⁻¹
